Where two headings read alike, the source gives them in different places.
Tests used:
[1] = tested on: γC-399tr-induced apoptosis; experiment: Blocking of γC-399tr-induced apoptosis by MAPK inhibitors (FIG. 6); format: cell-based
Protocol: 10 μM of inhibitor is the saturating concentration.
It was further observed that endothelial cell apoptosis induced by γC-399tr can be blocked by p38 MAP kinase inhibitor SB-203580 but not inhibitors of some other MAP kinases.

[2] = tested on: Bovine Arterial Endothelial (BAE) cell; experiment: Growth arrest of BAE cells in culture (FIG. 1); format: cell-based
Protocol: FIG. 1. Fibrinogen γC-induced growth arrest of Bovine Arterial Endothelial (BAE) cell. […] Fragment D required much higher concentrations (100 μg/ml) to induce detectable apoptotic effects.

BAE cells [3] = experiment: MTS (CellTiter96) proliferation assay, BAE cells (FIG. 2); format: cell-based, bovine
Protocol: (§1) FIG. 2. […] The numbers of proliferating cells were determined using a tetrazolium compound MTS (CellTiter96® assay).

CHO cells = experiment: MTS (CellTiter96) proliferation assay, CHO cells (FIG. 2); format: cell-based, Chinese hamster
Protocol: as §1

β3-CHO cells = experiment: MTS (CellTiter96) proliferation assay, β3-CHO cells (FIG. 2); format: cell-based, Chinese hamster
Protocol: as §1

BAE cells [4] = experiment: Annexin V / propidium iodide binding, flow cytometry, apoptosis of BAE cells (FIG. 3); format: cell-based, bovine
Protocol: FIGS. 3A and 3B. […] BAE cells were treated with 10 μg/ml recombinant soluble γC or native fibrinogen for the indicated time. The binding of annexin V or propidium iodide (PI) to the treated BAE cells was measured in flow cytometry (FIG. 3A).

MAP kinases Erk1 and 2 = experiment: Activation of MAP kinases Erk1 and 2, western blotting in β3-CHO cells (FIG. 4); format: cell-based, Chinese hamster; details: soluble γC in the medium, 30 min
Protocol: FIG. 4. Fibrinogen γC-induced activation of MAP kinases Erk1 and 2. CHO cells expressing recombinant αvβ3 (β3-CHO cells) were incubated with soluble γC at indicated concentrations for 30 min and the levels of MAP kinases (Erk1 and 2) were determined by western blotting with anti-phosphorylated Erk 1 and 2.
It remains a possibility that γC acts as an antagonist and blocks signaling from other integrin ligands by competing for binding to integrins.

[5] = tested on: calf pulmonary artery endothelial (CPAE) cells; experiment: CPAE proliferation / apoptosis, MTS and Phosphate assay (FIG. 5); format: cell-based
Protocol: FIG. 5. Inhibition of CPAE Proliferation induced by fibrinogen γC and γC-399tr. CPAE proliferation was measured by using a MTS and Phosphate assay. 10% serum-induced proliferation was inhibited by γC in a concentration-dependent fasion 48 hours passed after 1×10^5/ml. The γC-399tr is approximately 3 times more efficient in inducing apoptosis of CPAE cells.
A deletion mutant of γC that has 12 amino acids truncated from the C-terminal of γC, termed γC-399tr (having the amino acid sequence of 1-249 of SEQ ID NO:3), was recombinantly produced and purified.

caspase-3 and caspase-7 = experiment: Activation of caspases by γC in CPAE cells; format: cell-based, calf; details: protein expression and enzymatic activity
[6] = tested on: DLD-1 human colon adenocarcinoma cells; experiment: Tumor growth of DLD-1 xenograft in SCID mice; format: in vivo; details: injections of recombinant γC-399tr in PBS
Protocol: Human breast adenocarcinoma BT20 cells are subcutaneously injected into 7-9-week-old male non-obese diabetes/severe combined immunodeficiency (NOD/SCID) mice. The animals are divided into 4 groups, each having 5 animals. Each animal receives 2×10^6 cells in the injection. The treatment groups, Groups 1-3, are injected daily intraperitoneally with recombinant γC. The control group, Group 4, receives injections of equal volumes of PBS each day. The dimensions of the tumors are measured and the tumor volumes are calculated. After two weeks of treatment, the animals are sacrificed and the tumors are excised, sectioned, and evaluated histologically. To examine the tumor vasculatures, the tumor sections are stained by CD31 anti-mouse monoclonal antibody (PharMingen, San Diego, Calif.). Tumor size and the extent of tumor vasculature are compared among all treatment and control groups.
Following the general procedure described in Example 2, DLD-1 human colon adenocarcinoma cells were injected into SCID mice. Subsequently, the treatment groups of mice received injections of recombinant γC-399tr in PBS, whereas the control group received PBS injections.

C[S+]([O-])c1ccc(-c2nc(-c3ccncc3)c(-c3ccc(F)cc3)[nH]2)cc1 (stereo not drawn) [SB-203580]
saturating concentration of inhibitor for blocking γC-399tr-induced apoptosis [1]: 10 µM
blocking of γC-399tr-induced apoptosis ([1]; endothelial cell): blocks

B1: γC: Fibrinogen γ-chain C-terminal domain, 30 Kd, about 250 amino acid residues, sequence as set forth in SEQ ID NO:3 (protein, listed as Homo sapiens)
chain: KDCQDIANKGAKQSGLYFIKPLKANQQFLVYCEIDGSGNGWTVFQKRLDGSVDFKKNWIQYKEGFGHLSPTGTTEFWLGNEKIHLISTQSAIPYALRVELEDWNGRTSTADYAMFKVGPEADKYRLTYAYFAGGDAGDAFDGFDFGDDPSDKFFTSHNGMQFSTWDNDNDKFEGNCAEQDGSGWWMNKCHAGHLNGVYYQGGTYSKASTPNGYDNGIIWATWKTRWYSMKKTTMKIIPFNRLTIGEGQQHHLGGAKQAGDV
modifications: C-terminal region of fibrinogen gamma chain, isoform gamma-A, residues 177-437
proliferation of BAE cells ([2]; 12.5 μg/ml each in culture media, 1×10^4 cells per well, 48 hours): blocked proliferation
concentration blocking proliferation of BAE cells ([2]; FIG. 1 as cited): less than 1 μg/ml
level of γC effectively blocking proliferation of BAE cells (BAE cells [3]): below 1 μg/ml
proliferation of BAE cells in the MTS assay (BAE cells [3]): blocked proliferation
effect on proliferation of CHO cells (CHO cells): little or no effect
effect on proliferation of CHO cells (CHO cells; listed as γC domain): not
effect on proliferation of β3-CHO cells (β3-CHO cells): little or no effect
effect on proliferation of β3-CHO cells (β3-CHO cells; listed as γC domain): not
induction of apoptosis of BAE cells (BAE cells [4]; 10 μg/ml, annexin V / PI binding): induced apoptosis
time at which apoptosis of BAE cells was detectable (BAE cells [4]; 10 μg/ml, annexin V / PI flow cytometry): 2 to 4 h
time in which apoptosis of BAE cells was induced (BAE cells [4]; annexin V binding assays): 2 to 4 h
concentration inducing MAP kinase activation (MAP kinases Erk1 and 2): less than 1 μg/ml
apoptosis in CPAE cells [5]: induced apoptosis
10% serum-induced CPAE proliferation ([5]; 48 hours, 1×10^5/ml): inhibited
activation of caspase-3 and caspase-7 (caspase-3 and caspase-7): activation of caspase-3 and caspase-7

B2: γC-399tr: Deletion mutant of γC with 12 amino acids truncated from the C-terminal; amino acid sequence 1-249 of SEQ ID NO:3 (protein, listed as Homo sapiens)
chain: KDCQDIANKGAKQSGLYFIKPLKANQQFLVYCEIDGSGNGWTVFQKRLDGSVDFKKNWIQYKEGFGHLSPTGTTEFWLGNEKIHLISTQSAIPYALRVELEDWNGRTSTADYAMFKVGPEADKYRLTYAYFAGGDAGDAFDGFDFGDDPSDKFFTSHNGMQFSTWDNDNDKFEGNCAEQDGSGWWMNKCHAGHLNGVYYQGGTYSKASTPNGYDNGIIWATWKTRWYSMKKTTMKIIPFNRLTIGEGQQ
modifications: C-terminal region of fibrinogen gamma chain, isoform gamma-A, residues 177-437
tumor size versus PBS control group [6]: reduced tumor size

From US20060019871A1, “Endothelial cell apoptosis induced by fibrinogen gamma chain C-terminal fragment” (The Regents of the University of California, priority 2004, published 2006)
